Laboratory results: patent publication US7598225

Target: human HLA A2 molecules (human)
Experiment: T2 cell binding assay, peptide at 50 ug/ml, surface HLA A2 stained with MAb A2,69, flow cytometry (no peptide: 127.25)
Details: remark: other sources report otherwise

- mean channel fluorescent intensity: 182
Binder: VISNDVCAQV [PSA peptide 154-163]
